According to US20170275366A1 (Pfizer, published 2017):

B1: 139-V3 CAR (other)
chain: DIQMTQSPSSLSASVGDRVTITCRASQGIRNNLAWYQQKPGKAPKRLIYAASNLQSGVPSRFTGSGSGTEFTLIVSSLQPEDFATYYCLQHHSYPLTSGGGTKVEIKGGGGSGGGGSGGGGSEVQVLESGGGLVQPGGSLRLSCAASGFTFSSYAMSWVRQAPGKGLEWVSAISGSGGSTNYADSVKGRFTISRDNSKNTLYLQMNSLRAEDTAVYYCAGSSGWSEYWGQGTLVTVSSTTTPAPRPPTPAPTIASQPLSLRPEACRPAAGGAVHTRGLDFACDIYIWAPLAGTCGVLLLSLVITLYCKRGRKKLLYIFKQPFMRPVQTTQEEDGCSCRFPEEEEGGCELRVKFSRSADAPAYQQGQNQLYNELNLGRREEYDVLDKRRGRDPEMGGKPRRKNPQEGLYNELQKDKMAEAYSEIGMKGERRRGKGHDGLYQGLSTATKDTYDALHMQALPPR
notes: Chimeric antigen receptor on the surface of primary T cells (mRNA transfection); also called CARs 139-V3; 24
B2: MR1-V3 CAR (other)
chain: QVQLQQSGGGLVKPGASLKLSCVTSGFTFRKFGMSWVRQTSDKRLEWVASISTGGYNTYYSDNVKGRFTISRENAKNTLYLQMSSLKSEDTALYYCTRGYSSTSYAMDYWGQGTTVTVGGGGSGGGGSGGGGSDIELTQSPASLSVATGEKVTIRCMTSTDIDDDMNWYQQKPGEPPKFLISEGNTLRPGVPSRFSSSGTGTDFVFTIENTLSEDVGDYYCLQSFNVPLTFGDGTKLEKALTTTPAPRPPTPAPTIASQPLSLRPEACRPAAGGAVHTRGLDFACDIYIWAPLAGTCGVLLLSLVITLYCKRGRKKLLYIFKQPFMRPVQTTQEEDGCSCRFPEEEEGGCELRVKFSRSADAPAYQQGQNQLYNELNLGRREEYDVLDKRRGRDPEMGGKPRRKNPQEGLYNELQKDKMAEAYSEIGMKGERRRGKGHDGLYQGLSTATKDTYDALHMQALPPR
notes: Chimeric antigen receptor on the surface of primary T cells; It has the MR1 scFv (VH, (G4S)3 linker, VL), CD8 alpha hinge, CD8 alpha TM, 4-1BB and CD3 zeta; also called 26
B3: 139-V5 CAR (other)
chain: DIQMTQSPSSLSASVGDRVTITCRASQGIRNNLAWYQQKPGKAPKRLIYAASNLQSGVPSRFTGSGSGTEFTLIVSSLQPEDFATYYCLQHHSYPLTSGGGTKVEIKGGGGSGGGGSGGGGSEVQVLESGGGLVQPGGSLRLSCAASGFTFSSYAMSWVRQAPGKGLEWVSAISGSGGSTNYADSVKGRFTISRDNSKNTLYLQMNSLRAEDTAVYYCAGSSGWSEYWGQGTLVTVSSEPKSPDKTHTCPPCPAPPVAGPSVFLFPPKPKDTLMIARTPEVTCVVVDVSHEDPEVKFNWYVDGVEVHNAKTKPREEQYNSTYRVVSVLTVLHQDWLNGKEYKCKVSNKALPAPIEKTISKAKGQPREPQVYTLPPSRDELTKNQVSLTCLVKGFYPSDIAVEWESNGQPENNYKTTPPVLDSDGSFFLYSKLTVDKSRWQQGNVFSCSVMHEALHNHYTQKSLSLSPGKKDPKIYIWAPLAGTCGVLLLSLVITLYCKRGRKKLLYIFKQPFMRPVQTTQEEDGCSCRFPEEEEGGCELRVKFSRSADAPAYQQGQNQLYNELNLGRREEYDVLDKRRGRDPEMGGKPRRKNPQEGLYNELQKDKMAEAYSEIGMKGERRRGKGHDGLYQGLSTATKDTYDALHMQALPPR
notes: Chimeric antigen receptor on the surface of primary T cells; also called CARs 139-V5; 25
B4: MR1-V5 CAR (other)
chain: QVQLQQSGGGLVKPGASLKLSCVTSGFTFRKFGMSWVRQTSDKRLEWVASISTGGYNTYYSDNVKGRFTISRENAKNTLYLQMSSLKSEDTALYYCTRGYSSTSYAMDYWGQGTTVTVGGGGSGGGGSGGGGSDIELTQSPASLSVATGEKVTIRCMTSTDIDDDMNWYQQKPGEPPKFLISEGNTLRPGVPSRFSSSGTGTDFVFTIENTLSEDVGDYYCLQSFNVPLTFGDGTKLEKALEPKSPDKTHTCPPCPAPPVAGPSVFLFPPKPKDTLMIARTPEVTCVVVDVSHEDPEVKFNWYVDGVEVHNAKTKPREEQYNSTYRVVSVLTVLHQDWLNGKEYKCKVSNKALPAPIEKTISKAKGQPREPQVYTLPPSRDELTKNQVSLTCLVKGFYPSDIAVEWESNGQPENNYKTTPPVLDSDGSFFLYSKLTVDKSRWQQGNVFSCSVMHEALHNHYTQKSLSLSPGKKDPKIYIWAPLAGTCGVLLLSLVITLYCKRGRKKLLYIFKQPFMRPVQTTQEEDGCSCRFPEEEEGGCELRVKFSRSADAPAYQQGQNQLYNELNLGRREEYDVLDKRRGRDPEMGGKPRRKNPQEGLYNELQKDKMAEAYSEIGMKGERRRGKGHDGLYQGLSTATKDTYDALHMQALPPR
notes: Chimeric antigen receptor on the surface of primary T cells; It has the MR1 scFv, IgG1 hinge, CD8 alpha TM, 4-1BB and CD3 zeta; also called 27

target: T1, recombinant protein consisting of the extracellular domain of the human EGFRVIII protein fused with a murine … (human; murine, UniProt P00533 25-645); assay: flow cytometry of CAR on primary T cells; by the general methods detected through binding of EGFRvIII ECD-mouse IgG1 Fc and a PE anti-mouse Fc antibody
T1 construct: extracellular domain; It is described in the general methods as the reagent for detecting CAR on T cells by flow cytometry; also called EGFRvIII-mouse Fc detection reagent; not shown: murine IgG1 Fc fragment
Protocol: Transduction of T-cells with recombinant lentiviral vectors expression the CAR was carried out three days after T-cell purification/activation. Lentiviral vectors produced by Vectalys SA (Toulouse, France) by transfection of genomic and helper plasmids in HEK-293 cells may be used. Transductions were carried out at a multiplicity of infection of 5. CAR detection at the surface of T-cells is performed using a recombinant protein consisting on the extracellular domain of the human […] protein fused together with a murine IgG1 Fc fragment (produced by LakePharma). Binding of this protein to the CAR molecule is detected with a PE-conjugated secondary antibody (Jackson lmmunoresearch) targeting the mouse Fc portion of the protein, and analyzed by flow cytometry.

Does B1 bind?
Result: binds

Does B2 bind?
Result: binds

Does B3 bind?
Result: binds

Does B4 bind?
Result: binds
